Consider 3 molecules from patent US20140143908A1.

For series [1], the target named is T1, N-terminal truncated OsT6PP-D56NT.
T1 chain: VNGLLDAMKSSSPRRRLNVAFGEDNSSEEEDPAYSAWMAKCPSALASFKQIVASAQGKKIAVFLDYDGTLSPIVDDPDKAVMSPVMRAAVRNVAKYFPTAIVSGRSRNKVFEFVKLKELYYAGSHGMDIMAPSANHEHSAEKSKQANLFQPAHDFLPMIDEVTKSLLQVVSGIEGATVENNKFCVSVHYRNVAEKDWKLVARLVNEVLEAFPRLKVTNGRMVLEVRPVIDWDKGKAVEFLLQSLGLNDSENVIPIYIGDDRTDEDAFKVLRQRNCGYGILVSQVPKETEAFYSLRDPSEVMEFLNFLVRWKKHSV

Series [2] concerns the target T2, Oryza sativa trehalose-6-phosphate phosphatase, wild type (OsT6PP-WT).
T2 chain: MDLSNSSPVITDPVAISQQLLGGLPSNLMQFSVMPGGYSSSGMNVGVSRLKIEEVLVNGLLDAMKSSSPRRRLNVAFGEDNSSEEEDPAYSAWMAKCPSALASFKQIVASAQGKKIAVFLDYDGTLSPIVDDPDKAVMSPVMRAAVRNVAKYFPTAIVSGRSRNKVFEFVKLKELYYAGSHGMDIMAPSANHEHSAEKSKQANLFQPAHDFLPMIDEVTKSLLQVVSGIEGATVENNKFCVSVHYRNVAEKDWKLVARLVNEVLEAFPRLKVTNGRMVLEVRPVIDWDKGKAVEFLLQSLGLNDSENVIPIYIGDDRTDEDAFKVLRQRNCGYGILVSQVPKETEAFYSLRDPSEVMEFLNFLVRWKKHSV

The target of series [3] is Oryza sativa trehalose-6-phosphate phosphatase, wild type (OsT6PP-WT) (Oryza sativa) (UniProt Q75WV3). Kind of series: cell-based or functional assay.

Numbering of substitutions follows the chain as printed. Names may count otherwise.

B1: Oryza sativa trehalose-6-phosphate phosphatase single modification H244D (OsT6PP-H244D) (protein)
chain: T2 chain with H244D
For the molecule B1, the “fold increase of T6PP activity” value in series [1] was “a 1.7 fold increase in T6PP activity was observed when N-terminal truncated OsT6PP-D56NT was mixed with OsT6PP-H244D”. In series [2], this molecule registered a T6PP activity, trehalose formed (µM), 20 min, OsT6PP-WT (1 µg/ml) with 0.5 µg/mL OsT6PP-H244D; WT alone 28.7 of 34.9 µM; a T6PP activity, trehalose formed (µM), 20 min, OsT6PP-WT (1 µg/ml) with 1 µg/mL OsT6PP-H244D; WT alone 28.7 of 40.1 µM; a T6PP activity, trehalose formed (µM), 20 min, OsT6PP-WT (1 µg/ml) with 2 µg/mL OsT6PP-H244D; WT alone 28.7 of 52.3 µM; a T6PP activity, trehalose formed (µM), 20 min, OsT6PP-WT (1 µg/ml) with 5 µg/mL OsT6PP-H244D; WT alone 28.7 of 71.7 µM. Moreover, in series [2], the T6PP activity, trehalose formed (µM), 20 min, OsT6PP-WT (1 µg/ml) with 10 µg/mL OsT6PP-H244D; WT alone 28.7, H244D alone 2.2 came to 77.7 µM; the T6PP activity, trehalose formed (µM), 20 min, OsT6PP-WT (1 µg/ml) with 20 µg/mL OsT6PP-H244D; WT alone 28.7, H244D alone 6.2 worked out at 101 µM; the “fold increase of T6PP activity” value is reported as “An approximately 3-fold increased T6PP activity was observed when OsT6PP-WT was assayed in presence of OsT6PP-H244D”; the “trehalose 6-phosphate phosphatase activity (in vitro)” value was “Increased trehalose 6-phosphate phosphatase activity (in vitro) of OsT6PP-WT is observed in the presence of its catalytically inefficient variants, including OsT6PP-H244D, OsT6PP-H244S and OsT6PP-S242E”. In addition, in series [3], the Trehalose formed (µM), 20 min, mixture of OsT6PP-WT (1 µg/ml) and OsT6PP-H244D (10 µg/ml); WT alone 25.3, H244D alone 1.1 came to 89.5 µM; the Trehalose formed (µM), 40 min, mixture of OsT6PP-WT (1 µg/ml) and OsT6PP-H244D (10 µg/ml); WT alone 33.6, H244D alone 4.6 came to 155 µM; the Trehalose formed (µM), 60 min, mixture of OsT6PP-WT (1 µg/ml) and OsT6PP-H244D (10 µg/ml); WT alone 36.8, H244D alone 5.9 was found to be 220 µM.

B2: OsT6PP-H244S (protein)
chain: T2 chain with H244S
B2: in series [2], the “trehalose 6-phosphate phosphatase activity (in vitro)” value is “Increased trehalose 6-phosphate phosphatase activity (in vitro) of OsT6PP-WT is observed in the presence of its catalytically inefficient variants, including OsT6PP-H244D, OsT6PP-H244S and OsT6PP-S242E”.

B3: OsT6PP-S242E (protein)
chain: T2 chain with S242E
For the molecule B3, the “trehalose 6-phosphate phosphatase activity (in vitro)” value in series [2] is “Increased trehalose 6-phosphate phosphatase activity (in vitro) of OsT6PP-WT is observed in the presence of its catalytically inefficient variants, including OsT6PP-H244D, OsT6PP-H244S and OsT6PP-S242E”.
